Results reported in publication PMC6659632, “Preferential phosphatidylinositol 5-phosphate binding contributes to a destabilization of the VHS domain structure of Tom1” (Scientific Reports, 2019).

Molecular target: T1, ubiquitin (human, UniProt P0CG48 1-76)
T1 construct: ubiquitin, human; the cut product (one ubiquitin unit) of the polyubiquitin precursor; Construct was a gift (Dr. Julie Forman-Kay); also called human ubiquitin
Experiment: ITC; ubiquitin (5 mM) in the syringe, Tom1 VHS (50 uM) in the sample cell; 25 °C; 20 mM HEPES (pH 7.4), 150 mM KCl; one-site binding model; nonreducing conditions
Conditions: both partners purified

Kd: 695 µM
B1: Tom1 VHS domain (domain or fragment, human, UniProt O60784 20-152, looked up)
chain: ATDGSLQSEDWALNMEICDIINETEEGPKDALRAVKKRIVGNKNFHEVMLALTVLETCVKNCGHRFHVLVASQDFVESVLVRTILPKNNPPTIVHDKVLNLIQSWADAFRSSPDLTGVVTIYEDLRRKGLEFP
notes: Tom1 (target of Myb1), human, N-terminal VHS domain; measured average mass 15,708.01 Da, predicted 15.7 kDa; also called VHS domain of Tom1; target of Myb1 VHS domain; source: E. coli (Rosetta), GST fusion purified on glutathione beads, cleaved with thrombin, size-exclusion chromatography
